# In patent publication US20130225506A1 (POLYPHOR, published 2013):
# Square brackets hold non-standard residues; d marks the D form. Primed or numbered codes have the meaning given here. 1Nal = N[C@@H](Cc1cccc2ccccc12)C(=O)O; 2Nal = N[C@@H](Cc1ccc2ccccc2c1)C(=O)O; dCit = NC(=O)NCCC[C@@H](N)C(=O)O; dPip′ = not defined here
# B1: cyclo(-Ile-^DCit-Arg-Trp-^DPro-Thr-) (peptide)
# peptide: cyclo(I[dCit]RW[dP]T)
# SMILES: CC[C@H](C)[C@@H]1NC(=O)[C@H]([C@@H](C)O)NC(=O)[C@H]2CCCN2C(=O)[C@H](Cc2c[nH]c3ccccc23)NC(=O)[C@H](CCCNC(=N)N)NC(=O)[C@@H](CCCNC(N)=O)NC1=O
# B2: cyclo(-Ile-^DArg-Arg-2Nal-^DPro-Thr-) (peptide)
# peptide: cyclo(I[dR]R[2Nal][dP]T)
# SMILES: CC[C@H](C)[C@@H]1NC(=O)[C@H]([C@@H](C)O)NC(=O)[C@H]2CCCN2C(=O)[C@H](Cc2ccc3ccccc3c2)NC(=O)[C@H](CCCNC(=N)N)NC(=O)[C@@H](CCCNC(=N)N)NC1=O
# B3: cyclo(-Ile-^DArg-Trp-Arg-^DPro-Thr-) (peptide)
# peptide: cyclo(I[dR]WR[dP]T)
# SMILES: CC[C@H](C)[C@@H]1NC(=O)[C@H]([C@@H](C)O)NC(=O)[C@H]2CCCN2C(=O)[C@H](CCCNC(=N)N)NC(=O)[C@H](Cc2c[nH]c3ccccc23)NC(=O)[C@@H](CCCNC(=N)N)NC1=O
# B4: cyclo(-Ile-^DLys-Arg-Trp-^DPro-Thr-) (peptide)
# peptide: cyclo(I[dK]RW[dP]T)
# SMILES: CC[C@H](C)[C@@H]1NC(=O)[C@H]([C@@H](C)O)NC(=O)[C@H]2CCCN2C(=O)[C@H](Cc2c[nH]c3ccccc23)NC(=O)[C@H](CCCNC(=N)N)NC(=O)[C@@H](CCCCN)NC1=O
# B5: cyclo(-Ile-^DArg-Arg-Trp-^DPip-Thr-) (peptide)
# peptide: cyclo(I[dR]RW[dPip′]T)
# B6: cyclo(-Ile-^DHis-Arg-Trp-^DPro-Thr-) (peptide)
# peptide: cyclo(I[dH]RW[dP]T)
# SMILES: CC[C@H](C)[C@@H]1NC(=O)[C@H]([C@@H](C)O)NC(=O)[C@H]2CCCN2C(=O)[C@H](Cc2c[nH]c3ccccc23)NC(=O)[C@H](CCCNC(=N)N)NC(=O)[C@@H](Cc2c[nH]cn2)NC1=O
# B7: cyclo(-Thr-^DArg-Trp-Arg-^DPro-Thr-) (peptide)
# peptide: cyclo(T[dR]WR[dP]T)
# SMILES: C[C@@H](O)[C@@H]1NC(=O)[C@H]([C@@H](C)O)NC(=O)[C@H]2CCCN2C(=O)[C@H](CCCNC(=N)N)NC(=O)[C@H](Cc2c[nH]c3ccccc23)NC(=O)[C@@H](CCCNC(=N)N)NC1=O
# B8: cyclo(-1Nal-^DArg-Arg-Trp-^DPro-Thr-) (peptide)
# peptide: cyclo([1Nal][dR]RW[dP]T)
# SMILES: C[C@@H](O)[C@@H]1NC(=O)[C@H]2CCCN2C(=O)[C@H](Cc2c[nH]c3ccccc23)NC(=O)[C@H](CCCNC(=N)N)NC(=O)[C@@H](CCCNC(=N)N)NC(=O)[C@H](Cc2cccc3ccccc23)NC1=O
# B9: cyclo(-Ile-^DArg-Arg-1Nal-^DPro-Thr-) (peptide)
# peptide: cyclo(I[dR]R[1Nal][dP]T)
# SMILES: CC[C@H](C)[C@@H]1NC(=O)[C@H]([C@@H](C)O)NC(=O)[C@H]2CCCN2C(=O)[C@H](Cc2cccc3ccccc23)NC(=O)[C@H](CCCNC(=N)N)NC(=O)[C@@H](CCCNC(=N)N)NC1=O
# B10: cyclo(-Ile-^DArg-Arg-Ile-^DPro-Thr-) (peptide)
# peptide: cyclo(I[dR]RI[dP]T)
# SMILES: CC[C@H](C)[C@@H]1NC(=O)[C@H]([C@@H](C)O)NC(=O)[C@H]2CCCN2C(=O)[C@H]([C@@H](C)CC)NC(=O)[C@H](CCCNC(=N)N)NC(=O)[C@@H](CCCNC(=N)N)NC1=O
# B11: cyclo(-Ile-^DArg-Arg-Trp-^DPro-Thr-) (peptide)
# peptide: cyclo(I[dR]RW[dP]T)
# SMILES: CC[C@H](C)[C@@H]1NC(=O)[C@H]([C@@H](C)O)NC(=O)[C@H]2CCCN2C(=O)[C@H](Cc2c[nH]c3ccccc23)NC(=O)[C@H](CCCNC(=N)N)NC(=O)[C@@H](CCCNC(=N)N)NC1=O
# Target: chemokine receptor CXCR7 (UniProt P25106 1-362, limits assumed)
# Test: cell-based or functional assay
# chemokine receptor CXCR7, sequence (P25106 whole entry): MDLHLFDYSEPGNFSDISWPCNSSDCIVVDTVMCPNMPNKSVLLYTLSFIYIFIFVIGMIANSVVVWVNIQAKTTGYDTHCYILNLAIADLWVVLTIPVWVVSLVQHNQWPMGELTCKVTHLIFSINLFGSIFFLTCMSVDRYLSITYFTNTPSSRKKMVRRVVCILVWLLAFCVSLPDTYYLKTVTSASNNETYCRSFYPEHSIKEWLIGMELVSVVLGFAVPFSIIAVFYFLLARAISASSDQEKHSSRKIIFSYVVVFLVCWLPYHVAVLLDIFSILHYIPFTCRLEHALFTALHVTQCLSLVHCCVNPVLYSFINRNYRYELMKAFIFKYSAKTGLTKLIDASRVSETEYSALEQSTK
row,β-Arrestin EC50 [nM],Binder
1,472,B1
2,0.4,B2
3,62.5,B3
4,86.7,B4
5,0.1,B5
6,546,B6
7,17.2,B7
8,28.5,B8
9,17.9,B9
10,79.7,B10
11,6.7,B11
